Numbering of substitutions follows the chain as printed.
target: GRIP2_7, Q9C0E4; assay: holdup assay; design: key: below the threshold = too weak to quantify, mostly under pKd 3.1 to 4; conditions: plain residues with an end cap or a label only (N-terminal biotin on a linker: ado-ado)
Sequence (Q9C0E4 934-1023): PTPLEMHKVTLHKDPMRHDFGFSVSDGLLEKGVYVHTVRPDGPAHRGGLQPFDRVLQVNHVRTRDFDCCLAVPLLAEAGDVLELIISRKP

Row | pKd | Binder
1 | below the threshold | HLRQQGSVEV [EPHB6, O15197]

target: Inadl_5, Q8NI35; assay: holdup assay; design: key: below the threshold = too weak to quantify, mostly under pKd 3.1 to 4; conditions: plain residues with an end cap or a label only (N-terminal biotin on a linker: ado-ado)
Sequence (Q8NI35 673-780): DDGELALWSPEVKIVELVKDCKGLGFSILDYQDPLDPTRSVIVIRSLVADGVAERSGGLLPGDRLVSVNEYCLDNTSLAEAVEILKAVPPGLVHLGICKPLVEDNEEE

Row | pKd | Binder
2 | below the threshold | HLRQQGSVEV [EPHB6, O15197]

target: T1, MPDZ_5, O75970; assay: holdup assay; design: key: below the threshold = too weak to quantify, mostly under pKd 3.1 to 4; conditions: plain residues with an end cap or a label only (N-terminal biotin on a linker: ado-ado)
T1 sequence (O75970 695-796, limits assumed, looked up): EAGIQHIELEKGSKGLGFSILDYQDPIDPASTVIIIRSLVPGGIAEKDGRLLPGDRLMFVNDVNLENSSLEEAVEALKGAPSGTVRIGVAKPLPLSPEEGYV

Row | pKd | Binder
3 | below the threshold | HLRQQGSVEV [EPHB6, O15197]

target: T2, HTRA3, P83110; assay: holdup assay; design: key: below the threshold = too weak to quantify, mostly under pKd 3.1 to 4; conditions: plain residues with an end cap or a label only (N-terminal biotin on a linker: ado-ado)
T2 sequence (P83110 354-453, limits assumed, looked up): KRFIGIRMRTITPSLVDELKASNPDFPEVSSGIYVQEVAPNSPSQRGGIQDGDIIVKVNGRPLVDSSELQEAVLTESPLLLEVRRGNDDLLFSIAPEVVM

Row | pKd | Binder
4 | 3.81 | HLRQQGSVEV [EPHB6, O15197]

target: LDB3, O75112; assay: holdup assay; design: key: below the threshold = too weak to quantify, mostly under pKd 3.1 to 4; conditions: plain residues with an end cap or a label only (N-terminal biotin on a linker: ado-ado)
Sequence (O75112 1-94): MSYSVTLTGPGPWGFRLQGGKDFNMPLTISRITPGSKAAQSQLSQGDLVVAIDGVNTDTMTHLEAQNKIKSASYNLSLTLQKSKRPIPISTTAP

Row | pKd | Binder
5 | below the threshold | HLRQQGSVEV [EPHB6, O15197]

target: ARHGEF12, Q9NZN5-2; assay: holdup assay; design: key: below the threshold = too weak to quantify, mostly under pKd 3.1 to 4; conditions: plain residues with an end cap or a label only (N-terminal biotin on a linker: ado-ado)
Sequence (Q9NZN5 other isoform, or with tags, fused parts or gaps): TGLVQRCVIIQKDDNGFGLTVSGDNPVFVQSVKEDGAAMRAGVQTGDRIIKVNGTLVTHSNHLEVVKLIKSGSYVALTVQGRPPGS

Row | pKd | Binder
6 | 3.67 | HLRQQGSVEV [EPHB6, O15197]

target: PDZRN4_1, Q6ZMN7; assay: holdup assay; design: key: below the threshold = too weak to quantify, mostly under pKd 3.1 to 4; conditions: plain residues with an end cap or a label only (N-terminal biotin on a linker: ado-ado)
Sequence (Q6ZMN7 213-318): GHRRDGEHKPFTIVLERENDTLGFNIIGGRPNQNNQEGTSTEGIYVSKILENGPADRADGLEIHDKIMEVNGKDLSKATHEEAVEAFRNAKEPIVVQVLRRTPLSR

Row | pKd | Binder
7 | below the threshold | HLRQQGSVEV [EPHB6, O15197]

target: T3, GRIP1_4, Q9Y3R0; assay: holdup assay; design: key: below the threshold = too weak to quantify, mostly under pKd 3.1 to 4; conditions: plain residues with an end cap or a label only (N-terminal biotin on a linker: ado-ado)
T3 sequence (Q9Y3R0 467-571, limits assumed, looked up): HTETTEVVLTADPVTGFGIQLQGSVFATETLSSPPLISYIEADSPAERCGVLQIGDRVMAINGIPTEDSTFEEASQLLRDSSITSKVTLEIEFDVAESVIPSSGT

Row | pKd | Binder
8 | below the threshold | HLRQQGSVEV [EPHB6, O15197]

target: T4, APBA2_2, Q99767; assay: holdup assay; design: key: below the threshold = too weak to quantify, mostly under pKd 3.1 to 4; conditions: plain residues with an end cap or a label only (N-terminal biotin on a linker: ado-ado)
T4 sequence (Q99767 654-744, limits assumed, looked up): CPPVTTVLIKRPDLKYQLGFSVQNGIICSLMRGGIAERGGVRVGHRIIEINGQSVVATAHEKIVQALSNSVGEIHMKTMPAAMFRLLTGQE

Row | pKd | Binder
9 | below the threshold | HLRQQGSVEV [EPHB6, O15197]

target: IL16_1, Q14005; assay: holdup assay; design: key: below the threshold = too weak to quantify, mostly under pKd 3.1 to 4; conditions: plain residues with an end cap or a label only (N-terminal biotin on a linker: ado-ado)
Sequence (Q14005 210-306): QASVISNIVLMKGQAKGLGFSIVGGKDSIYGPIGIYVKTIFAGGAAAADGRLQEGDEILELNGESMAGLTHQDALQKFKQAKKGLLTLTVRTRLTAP

Row | pKd | Binder
10 | below the threshold | HLRQQGSVEV [EPHB6, O15197]

target: T5, NHERF3_3, Q5T2W1; assay: holdup assay; design: key: below the threshold = too weak to quantify, mostly under pKd 3.1 to 4; conditions: plain residues with an end cap or a label only (N-terminal biotin on a linker: ado-ado)
T5 sequence (Q5T2W1 238-333, limits assumed, looked up): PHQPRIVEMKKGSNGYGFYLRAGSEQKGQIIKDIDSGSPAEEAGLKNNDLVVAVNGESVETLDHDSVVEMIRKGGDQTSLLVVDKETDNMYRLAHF

Row | pKd | Binder
11 | below the threshold | HLRQQGSVEV [EPHB6, O15197]

target: DLG1_1, Q12959; assay: holdup assay; design: key: below the threshold = too weak to quantify, mostly under pKd 3.1 to 4; conditions: plain residues with an end cap or a label only (N-terminal biotin on a linker: ado-ado)

Row | pKd | Binder
12 | below the threshold | HLRQQGSVEV [EPHB6, O15197]

target: DLG4_2, P78352; assay: holdup assay; design: key: below the threshold = too weak to quantify, mostly under pKd 3.1 to 4; conditions: plain residues with an end cap or a label only (N-terminal biotin on a linker: ado-ado)
Sequence (P78352 155-259): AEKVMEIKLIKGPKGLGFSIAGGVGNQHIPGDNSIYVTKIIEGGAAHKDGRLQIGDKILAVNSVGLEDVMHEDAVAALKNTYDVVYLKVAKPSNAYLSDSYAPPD

Row | pKd | Binder
13 | 3.72 | HLRQQGSVEV [EPHB6, O15197]

target: Inadl_10, Q8NI35; assay: holdup assay; design: key: below the threshold = too weak to quantify, mostly under pKd 3.1 to 4; conditions: plain residues with an end cap or a label only (N-terminal biotin on a linker: ado-ado)
Sequence (Q8NI35 1673-1763): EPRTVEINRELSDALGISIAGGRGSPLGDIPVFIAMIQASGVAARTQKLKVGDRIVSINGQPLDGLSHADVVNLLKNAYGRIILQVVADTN

Row | pKd | Binder
14 | below the threshold | HLRQQGSVEV [EPHB6, O15197]

target: LAP2, Q96RT1; assay: holdup assay; design: key: below the threshold = too weak to quantify, mostly under pKd 3.1 to 4; conditions: plain residues with an end cap or a label only (N-terminal biotin on a linker: ado-ado)
Sequence (Q96RT1 other isoform, or with tags, fused parts or gaps): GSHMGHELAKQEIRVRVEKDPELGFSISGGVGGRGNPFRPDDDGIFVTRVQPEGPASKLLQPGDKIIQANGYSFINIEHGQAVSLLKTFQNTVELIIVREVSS

Row | pKd | Binder
15 | below the threshold | HLRQQGSVEV [EPHB6, O15197]

target: PDLIM1, O00151; assay: holdup assay; design: key: below the threshold = too weak to quantify, mostly under pKd 3.1 to 4; conditions: plain residues with an end cap or a label only (N-terminal biotin on a linker: ado-ado)
Sequence (O00151 1-87): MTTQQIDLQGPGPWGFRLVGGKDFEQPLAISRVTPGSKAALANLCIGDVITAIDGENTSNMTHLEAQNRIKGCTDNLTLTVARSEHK

Row | pKd | Binder
16 | below the threshold | HLRQQGSVEV [EPHB6, O15197]

target: FRMPD3, Q5JV73; assay: holdup assay; design: key: below the threshold = too weak to quantify, mostly under pKd 3.1 to 4; conditions: plain residues with an end cap or a label only (N-terminal biotin on a linker: ado-ado)
Sequence (Q5JV73 12-100): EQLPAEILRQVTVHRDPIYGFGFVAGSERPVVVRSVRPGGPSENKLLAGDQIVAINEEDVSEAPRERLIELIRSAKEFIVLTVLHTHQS

Row | pKd | Binder
17 | below the threshold | HLRQQGSVEV [EPHB6, O15197]

target: HTRA1, Q92743; assay: holdup assay; design: key: below the threshold = too weak to quantify, mostly under pKd 3.1 to 4; conditions: plain residues with an end cap or a label only (N-terminal biotin on a linker: ado-ado)
Sequence (Q92743 360-477): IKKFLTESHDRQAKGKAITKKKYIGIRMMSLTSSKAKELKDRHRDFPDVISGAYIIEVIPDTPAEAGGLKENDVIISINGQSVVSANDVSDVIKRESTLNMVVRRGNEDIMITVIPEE

Row | pKd | Binder
18 | 4.59 | HLRQQGSVEV [EPHB6, O15197]

target: MAGI2_3, Q86UL8; assay: holdup assay; design: key: below the threshold = too weak to quantify, mostly under pKd 3.1 to 4; conditions: plain residues with an end cap or a label only (N-terminal biotin on a linker: ado-ado)
Sequence (Q86UL8 600-682): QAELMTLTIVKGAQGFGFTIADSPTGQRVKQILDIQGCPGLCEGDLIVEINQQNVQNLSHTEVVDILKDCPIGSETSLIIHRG

Row | pKd | Binder
19 | below the threshold | HLRQQGSVEV [EPHB6, O15197]

target: T6, LIN7C, Q9NUP9; assay: holdup assay; design: key: below the threshold = too weak to quantify, mostly under pKd 3.1 to 4; conditions: plain residues with an end cap or a label only (N-terminal biotin on a linker: ado-ado)
T6 sequence (Q9NUP9 88-185, limits assumed, looked up): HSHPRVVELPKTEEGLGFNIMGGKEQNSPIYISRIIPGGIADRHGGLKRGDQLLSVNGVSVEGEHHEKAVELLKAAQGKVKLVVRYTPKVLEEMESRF

Row | pKd | Binder
20 | below the threshold | HLRQQGSVEV [EPHB6, O15197]

target: DLG4_3, P78352; assay: holdup assay; design: key: below the threshold = too weak to quantify, mostly under pKd 3.1 to 4; conditions: plain residues with an end cap or a label only (N-terminal biotin on a linker: ado-ado)
Sequence (P78352 306-403): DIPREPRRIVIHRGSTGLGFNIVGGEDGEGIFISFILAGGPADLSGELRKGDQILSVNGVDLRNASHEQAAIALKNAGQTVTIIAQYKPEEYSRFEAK

Row | pKd | Binder
21 | below the threshold | HLRQQGSVEV [EPHB6, O15197]

target: T7, PDZD7_3, Q9H5P4; assay: holdup assay; design: key: below the threshold = too weak to quantify, mostly under pKd 3.1 to 4; conditions: plain residues with an end cap or a label only (N-terminal biotin on a linker: ado-ado)
T7 sequence (Q9H5P4 857-944, limits assumed, looked up): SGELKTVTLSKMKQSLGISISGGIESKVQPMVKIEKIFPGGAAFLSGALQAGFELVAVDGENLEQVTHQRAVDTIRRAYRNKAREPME

Row | pKd | Binder
22 | below the threshold | HLRQQGSVEV [EPHB6, O15197]

target: T8, LIN7B, Q9HAP6; assay: holdup assay; design: key: below the threshold = too weak to quantify, mostly under pKd 3.1 to 4; conditions: plain residues with an end cap or a label only (N-terminal biotin on a linker: ado-ado)
T8 sequence (Q9HAP6 88-185, limits assumed, looked up): T6 sequence (Q9NUP9 88-185, limits assumed, looked up) with S2A, E13D, I35V, I40V, H65Q, K79S, K89R, S96A

Row | pKd | Binder
23 | below the threshold | HLRQQGSVEV [EPHB6, O15197]

target: LNX1_3, Q8TBB1; assay: holdup assay; design: key: below the threshold = too weak to quantify, mostly under pKd 3.1 to 4; conditions: plain residues with an end cap or a label only (N-terminal biotin on a linker: ado-ado)
Sequence (Q8TBB1 500-596): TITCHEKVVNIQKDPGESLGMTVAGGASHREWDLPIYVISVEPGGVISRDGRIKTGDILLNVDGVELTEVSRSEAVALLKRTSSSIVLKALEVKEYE

Row | pKd | Binder
24 | below the threshold | HLRQQGSVEV [EPHB6, O15197]

target: MAGI2_4, Q86UL8; assay: holdup assay; design: key: below the threshold = too weak to quantify, mostly under pKd 3.1 to 4; conditions: plain residues with an end cap or a label only (N-terminal biotin on a linker: ado-ado)
Sequence (Q86UL8 772-865): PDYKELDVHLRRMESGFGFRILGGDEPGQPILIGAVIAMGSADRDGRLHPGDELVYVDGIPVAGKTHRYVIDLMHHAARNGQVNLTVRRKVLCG

Row | pKd | Binder
25 | below the threshold | HLRQQGSVEV [EPHB6, O15197]

target: T9, APBA3_1, O96018; assay: holdup assay; design: key: below the threshold = too weak to quantify, mostly under pKd 3.1 to 4; conditions: plain residues with an end cap or a label only (N-terminal biotin on a linker: ado-ado)
T9 sequence (O96018 389-490, limits assumed, looked up): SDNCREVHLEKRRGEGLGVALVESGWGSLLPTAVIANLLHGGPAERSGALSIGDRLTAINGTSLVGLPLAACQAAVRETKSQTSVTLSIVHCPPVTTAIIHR

Row | pKd | Binder
26 | below the threshold | HLRQQGSVEV [EPHB6, O15197]

target: AHNAK1, Q09666; assay: holdup assay; design: key: below the threshold = too weak to quantify, mostly under pKd 3.1 to 4; conditions: plain residues with an end cap or a label only (N-terminal biotin on a linker: ado-ado)
Sequence (Q09666 4-100): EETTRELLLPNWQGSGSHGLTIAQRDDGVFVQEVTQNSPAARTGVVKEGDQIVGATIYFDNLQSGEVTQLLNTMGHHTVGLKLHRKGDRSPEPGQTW

Row | pKd | Binder
27 | below the threshold | HLRQQGSVEV [EPHB6, O15197]

target: DLG2_2, Q15700; assay: holdup assay; design: key: below the threshold = too weak to quantify, mostly under pKd 3.1 to 4; conditions: plain residues with an end cap or a label only (N-terminal biotin on a linker: ado-ado)
Sequence (Q15700 189-283): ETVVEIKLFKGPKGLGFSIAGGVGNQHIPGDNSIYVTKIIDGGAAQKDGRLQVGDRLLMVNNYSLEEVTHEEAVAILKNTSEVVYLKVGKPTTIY

Row | pKd | Binder
28 | below the threshold | HLRQQGSVEV [EPHB6, O15197]

target: IL16_4, Q14005; assay: holdup assay; design: key: below the threshold = too weak to quantify, mostly under pKd 3.1 to 4; conditions: plain residues with an end cap or a label only (N-terminal biotin on a linker: ado-ado)
Sequence (Q14005 1229-1329): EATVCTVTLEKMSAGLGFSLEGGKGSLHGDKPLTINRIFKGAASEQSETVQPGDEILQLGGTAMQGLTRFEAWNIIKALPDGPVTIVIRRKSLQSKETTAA

Row | pKd | Binder
29 | below the threshold | HLRQQGSVEV [EPHB6, O15197]

From paper PMC9482650, “Quantitative fragmentomics allow affinity mapping of interactomes” (Nature Communications, 2022)
